Data reported in article PMC4614863, “New Insights into the RNA-Binding and E3 Ubiquitin Ligase Activities of Roquins”.

Legend:
[1] = molecular target: T1, RC3H2 RNA-binding region (HEPN+ROQ), wild type (Homo sapiens, UniProt Q9HBD1 87-404); assay: analytical SEC; ITC: 20 mM Tris-HCl pH 8.0, 150 mM NaCl, 1 mM TCEP, 25 C; 200-500 uM RNA injected into 15-30 uM protein, one-site model; details: protein: recombinant
T1 sequence: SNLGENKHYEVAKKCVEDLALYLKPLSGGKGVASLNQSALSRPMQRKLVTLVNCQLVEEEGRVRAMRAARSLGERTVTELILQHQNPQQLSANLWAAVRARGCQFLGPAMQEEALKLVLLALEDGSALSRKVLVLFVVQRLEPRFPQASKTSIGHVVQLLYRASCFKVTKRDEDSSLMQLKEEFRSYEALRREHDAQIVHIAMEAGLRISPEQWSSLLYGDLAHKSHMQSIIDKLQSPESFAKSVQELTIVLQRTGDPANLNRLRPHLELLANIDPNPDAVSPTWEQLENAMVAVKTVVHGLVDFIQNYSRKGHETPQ

[2] = molecular target: T2, RC3H2 stem-loop triple mutant (Homo sapiens, UniProt Q9HBD1 87-404, Q244A;Y247A;R248E); assay: ITC; ITC: 20 mM Tris-HCl pH 8.0, 150 mM NaCl, 1 mM TCEP, 25 C; 200-500 uM RNA injected into 15-30 uM protein, one-site model; details: protein: recombinant; tags: His6-tag, removed by TEV where applicable; hairpin; mainly stem-loop in solution
T2 sequence: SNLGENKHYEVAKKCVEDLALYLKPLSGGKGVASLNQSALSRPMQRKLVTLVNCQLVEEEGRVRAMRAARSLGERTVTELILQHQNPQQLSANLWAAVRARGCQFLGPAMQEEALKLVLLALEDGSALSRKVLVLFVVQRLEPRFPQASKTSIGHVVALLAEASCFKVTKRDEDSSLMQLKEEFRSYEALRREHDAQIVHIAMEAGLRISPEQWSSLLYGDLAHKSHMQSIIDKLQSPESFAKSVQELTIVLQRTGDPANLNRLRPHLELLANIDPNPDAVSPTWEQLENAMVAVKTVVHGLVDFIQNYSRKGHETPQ

[3] = molecular target: T1, RC3H2 RNA-binding region (HEPN+ROQ), …; assay: as above; details: protein: recombinant, tags: His6-tag (pET28-MHL N-terminal TEV-cleavable, or pNIC-CH C-terminal uncleavable), removed by TEV where applicable
[4] = molecular target: T1, RC3H2 RNA-binding region (HEPN+ROQ), …; assay: crystal structure; duplex contacts HEPN and ROQ; same ASU also has stem-loop RNA; 2.5 A; ITC: 20 mM Tris-HCl pH 8.0, 150 mM NaCl, 1 mM TCEP, 25 C; 200-500 uM RNA injected into 15-30 uM protein, one-site model; details: protein: recombinant; tags: His6-tag (pET28-MHL N-terminal TEV-cleavable, or pNIC-CH C-terminal uncleavable); removed by TEV where applicable; antiparallel self-duplex, 2 copies of strand; 10 Watson-Crick bp plus central UGU with U7-U9 wobble pairs
[5] = molecular target: T2, RC3H2 stem-loop triple mutant; assay: analytical SEC; 47.3 kDa complex; ITC: 20 mM Tris-HCl pH 8.0, 150 mM NaCl, 1 mM TCEP, 25 C; 200-500 uM RNA injected into 15-30 uM protein, one-site model; details: protein: recombinant; tags: His6-tag, removed by TEV where applicable; mixture of hairpin and self-duplex in solution
[6] = molecular target: T3, RC3H2 quaternary mutant (triple mutant + phosphomimic) (Homo sapiens, UniProt Q9HBD1 87-404, Q244A;Y247A;R248E;S323E); assay: ITC; attributed to duplex form of Tnf23; ITC: 20 mM Tris-HCl pH 8.0, 150 mM NaCl, 1 mM TCEP, 25 C; 200-500 uM RNA injected into 15-30 uM protein, one-site model; details: protein: recombinant; tags: His6-tag, removed by TEV where applicable; mixture of hairpin and self-duplex in solution
T3 sequence: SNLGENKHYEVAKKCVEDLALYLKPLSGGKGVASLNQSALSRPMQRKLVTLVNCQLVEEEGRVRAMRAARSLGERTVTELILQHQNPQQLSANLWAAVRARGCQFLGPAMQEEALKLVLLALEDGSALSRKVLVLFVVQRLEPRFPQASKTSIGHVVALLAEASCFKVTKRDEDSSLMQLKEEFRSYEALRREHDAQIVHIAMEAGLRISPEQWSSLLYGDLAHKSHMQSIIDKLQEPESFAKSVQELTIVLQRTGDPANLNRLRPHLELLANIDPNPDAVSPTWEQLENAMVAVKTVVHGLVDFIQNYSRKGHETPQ

[7] = tags: His6-tag (pET28-MHL N-terminal TEV-cleavable, or pNIC-CH C-terminal uncleavable), removed by TEV where applicable, hairpin and/or self-duplex

**Q.** Does UUAAUAACUUCUGUGAAGUUGUUUAC (structured_RNA) [Roquin2 CDE RNA (called 27-nt; 26 nt printed)] bind [1, 7]?
**A.** binds

**Q.** Does AUAACUUCUGUGAAGUUGC (structured_RNA) [Roquin CDE RNA, 19-nt] bind [1, 7]?
**A.** binds

**Q.** Does AUGUUCUGUGAACAC (structured_RNA) [Ier3 CDE RNA, 15-nt] bind [2]?
**A.** no binding

**Q.** What about the Kd ([3]; hairpin, mainly stem-loop in solution) of the same binder?
**A.** 356 ± 86 nM

B1: dsICOS (called 24-bp; 23 nt printed) (dsRNA)
RNA 1: UCUUCAGUCUAGACAGUUCGCUU
RNA 2: AAGCGAACUGUCUAGACUGAAGA
**Q.** Does B1 bind ([1]; tags: His6-tag (pET28-MHL N-terminal TEV-cleavable, or pNIC-CH C-terminal uncleavable; removed by TEV where applicable; ends not further stated))?
**A.** binds

B2: Ier3 CDE RNA duplex (crystal) (dsRNA)
RNA 1: AUGUUCUGUGAACAC
RNA 2: AUGUUCUGUGAACAC
**Q.** Does B2 bind [4]?
**A.** binds

**Q.** How did the Kd ([3]; mixture of hairpin and self-duplex in solution) turn out when ACAUGUUUUCUGUGAAAACGGAG (structured_RNA) [Tnf23 CDE RNA, 23-nt] was run?
**A.** 144 ± 50 nM

**Q.** Does ACAUGUUUUCUGUGAAAACGGAG (structured_RNA) [Tnf23 CDE RNA, 23-nt] bind [5]?
**A.** binds

**Q.** And the Kd [6]?
**A.** 590 nM
